From the RNAGym collection of RNA variant scans (doi:10.1073/pnas.2313332121)

B1: TPR t1 (parent)
chain: GACCAAUCUGCCCUCAGAGCUCGAGAACAUCUUCGGAUGCAGAGGAGGCAGGCUUCGGUGGCGCGAUAGCGCCAACGUCCUCAACCUCCAAUGCAUCCCACCACAUGAUGAUGCCUGAAGAGCCUUGGUUUUUUG

Variants of: B1
Assay: polymerase ribozyme fitness, log enrichment relative to wild type (log ratio); higher = more active; in vitro selection for triplet polymerase activity
How it was run: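 To select mutant libraries of each subunit of a heterodimeric triplet polymerase ribozyme, built by PCR and transcribed, each was annealed with a biotinylated primer, partner subunit and triplets, then incubated frozen at −7 °C. Extended constructs were gel-excised, captured on streptavidin beads and amplified by RT-PCR, in one round carried out in triplicate. Illumina sequencing of input and output libraries kept genotypes with ≥10 input reads and ≥1 read per output. Fitness is the base-2 logarithm of genotype enrichment relative to wild-type enrichment, from inverse-variance-weighted replicate averages.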

Row | Variant | polymerase ribozyme fitness (log ratio)
1 | G35U A74G C89U C115A | -6.17
2 | G36A G45U U59A C72G C97G C98U C102A A111G | -6.75
3 | G36U G61A U78A | -0.679
4 | A37C G63A | -0.905
5 | G36A U106A C124A U129G | 0.262
6 | G36U C79U | -1.62
7 | G36U C79A | -3.02
8 | U38G C80U | -1.64
9 | U38A C72G C86U G135U | -3.57
10 | G36U U59C C86U | -1.77
11 | G39A A84C U106A | -0.784
12 | A37C G61U C104U U112C | 1.04
13 | G36U C53U G61A A118G | -1.48
14 | G36C C102U | -3.5
15 | A37G C72A A84G | -1.24
16 | G36C U106G | -3.63
17 | A37C G65C A121U | -5.06
18 | U38A G45C C89U | -2.34
19 | U38A G61A | -1.68
20 | G36U C72A C85A U92A U112A U129A | -5.86
21 | G36U A50U A118U | -1.34

Row | Variant | polymerase ribozyme fitness (log ratio)
22 | G36U G52C U78G A95G | -2.15
23 | A37C G122U | -0.263
24 | A37C G52U C80A | -4.05
25 | U38G G135U | -2.04
26 | G36U C64U C123G | 0.799
27 | A37C G120A | 1.02
28 | U38G C49U U125G | -2.98
29 | A37G A118U | 0.234
30 | A37G A50C G57A G117C | -6.92
31 | G36U G122A U131A | -1.83
32 | A37G G69U A100U C114G | -1.72
33 | U38G G52U G135C | -3.58
34 | A37C G48C | -1.64
35 | A37C G69U U96G U129A | -0.113
36 | G36U G60C | -1.25
37 | G36C C49A C53A G61C C76U A119G | -6.33
38 | A37G U59G | 0.0397
39 | G36A C40A C56U G110A U116A C124A U125G | -7.28
40 | G36A C49U C64U C86G U92C | -6.86
41 | A37U G51C C79G A118G | -3.37
42 | G36C G128C | -4.43

Row | Variant | polymerase ribozyme fitness (log ratio)
43 | G36C A91C | -1.87
44 | G35U G42A | -6.8
45 | A37C G63C A74C | -3.35
46 | G36U G48A C70U C82U U133G | -1.79
47 | U38G G47U G120A U130C | -1.92
48 | U38G G60U | -0.261
49 | U38G C89U | -0.78
50 | A37C G39A G61A U112A U116G U133A | -3.64
51 | A37C G45A G113U | -4.52
52 | U38C G63C C102U | -3.7
53 | A37C G52A G69U C114G C123U | -2.89
54 | U38G C73G A95C A100C U106A G127A | -2.6
55 | G36C A68G C79G C98U C115U C124U | -6.44
56 | G36A G45C A83G C101G | -2.84
57 | U38A C40A G93U | -0.915
58 | U38A G60A A121C G135U | -1.36
59 | A37U C86G C88U C104U U106A G113A C124G G127A | -4.82
60 | G36U U106G G120A | -1.89
61 | G36A C56U | -0.261
62 | A37U G63U A105C | -5.31
63 | G36U A103U C114U | -5.26

Row | Variant | polymerase ribozyme fitness (log ratio)
64 | G36C A50C C114U | -6.09
65 | A37U C40U U87C G135U | -1.29
66 | G39A A90G | 0.17
67 | A37G C64U C88U A121U | -0.585
68 | G36C A37U G48C A91U C115U | -4.92
69 | G36U C80A U81A A121U U130C | -0.239
70 | G36U G60C G69U A100U | -4.04
71 | G36U G61C U126C | -4.78
72 | G36U G44C C70U | -2.13
73 | U38A C102A | -4.22
74 | U38A C102U | -4.16
75 | G36U G42U C56G C70U U112C C124U | -2.29
76 | G36U G69A | -4.06
77 | A37C C40U C53U G63U C123G U133C | -0.381
78 | G36U C49U A95U | -3.5
79 | G36U U96A C97A G127A | -2.83
80 | U38C A46U A100C | -4.28
81 | U38G C62A U106A G113U | -6.66
82 | G36A A37G A111G G113C A121C | -5.88
83 | A37U C123U | 0.6
